# Where a chain is given by its changes, count along the chain named.
# B1: Ska1-Ska2-Ska3 6A complex (complex)
# chain 1: MASSDLEQLCSHVNEKIGNIKKTLSLRNCGQEPTLKTVLNKIGDEIIVINELLNKLELEIQYQEQTNNSLKELCESLEEDYKDIEHLKENVPSHLPQVTVTQSCVKGSDLDPEEPIKVEEPEPVKKPPKEQRSIKEMPFITCDEFNGVPSYMKSRLTYNQINDVIKEINKAVISKYKILHQPKKSMNSVTRNLYHRFIDEETKDTKGRYFIVEADIKEFTTLKADKKFHVLLNILRHCRRLSEVRGGGLTRYVIT
# chain 2: MEAEVDKLELMFQKAESDLDYIQYRLEYEIKTNHPDSASEKNPVTLLKELSVIKSRYQTLYARFKPVAVEQKESKSRICATVKKTMNMIQKLQKQTDLELSPLTKEEKTAAEQFKFHMPDL
# chain 3: MDPIRSFCGKLRSLASTLDCETARLQRALDGEESDFEDYPMRILYDLHSEVQTLKDDVNILLDKARLENQEGIDFIKATKVLMEKNSMDIMKIREYFQKYGYSPRVKKNSVHEQEAINSDPELSNCENFQKTDVKDDLSDPPVASSCISEKSPRSPQLSDFGLERYIVSQVLPNPPQAVNNYKEEPVIVTPPTKQSLVKVLKAPKCALKMDDFECVAPKLEHFGISEYTMCLNEDYTMGLKNARNNKSEEAIDTESRLNDNVFATPSPIIQQLEKSDAEYTNAPLVPTFCAPGLKIPSTKNSIALVSTNYPLSKTNSSSNDLEVEDRTSLVLNSDTCFENLTDPSSPTISSYENLLRAPAPPEVTKIPEDILQLLSKYNSNLATPIAIKAVPPSKRFLKHGQNIRDVSNKEN
# B2: Ska1-Ska2-Ska3 6D complex (complex)
# chain 1: B1 chain 1
# chain 2: B1 chain 2
# chain 3: B1 chain 3 with A203D, A217D, A283D, A291D, A358D, A360D
# B3: Ska1-Ska2-Ska3 6A complex treated with Cdk1/Cyclin B1 (complex)
# chain 1: B1 chain 1
# chain 2: B1 chain 2
# chain 3: B1 chain 3
# modifications: treated with Cdk1/Cyclin B1 plus ATP; phosphorylated residues not stated
# Experiments:
# GST-Nuf2-Ndc80 complex = GST-Nuf2-Ndc80 complex (UniProt Q9BZD4;O14777); test: pull-down
# Chain of GST-Nuf2-Ndc80 complex (Q9BZD4 whole entry, chain 1 of 2): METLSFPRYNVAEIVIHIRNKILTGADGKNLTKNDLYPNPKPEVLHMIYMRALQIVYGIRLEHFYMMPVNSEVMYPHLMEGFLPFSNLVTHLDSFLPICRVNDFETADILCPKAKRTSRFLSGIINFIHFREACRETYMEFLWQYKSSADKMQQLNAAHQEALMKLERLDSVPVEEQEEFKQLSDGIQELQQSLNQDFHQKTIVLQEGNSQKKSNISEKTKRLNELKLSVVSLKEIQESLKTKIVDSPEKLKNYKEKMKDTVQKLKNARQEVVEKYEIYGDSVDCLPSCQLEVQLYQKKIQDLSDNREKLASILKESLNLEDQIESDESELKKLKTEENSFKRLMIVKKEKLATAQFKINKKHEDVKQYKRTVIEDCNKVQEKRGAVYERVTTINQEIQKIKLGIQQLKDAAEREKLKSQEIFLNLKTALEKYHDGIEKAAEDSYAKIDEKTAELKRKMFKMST
# Chain of GST-Nuf2-Ndc80 complex (O14777 whole entry, chain 2 of 2): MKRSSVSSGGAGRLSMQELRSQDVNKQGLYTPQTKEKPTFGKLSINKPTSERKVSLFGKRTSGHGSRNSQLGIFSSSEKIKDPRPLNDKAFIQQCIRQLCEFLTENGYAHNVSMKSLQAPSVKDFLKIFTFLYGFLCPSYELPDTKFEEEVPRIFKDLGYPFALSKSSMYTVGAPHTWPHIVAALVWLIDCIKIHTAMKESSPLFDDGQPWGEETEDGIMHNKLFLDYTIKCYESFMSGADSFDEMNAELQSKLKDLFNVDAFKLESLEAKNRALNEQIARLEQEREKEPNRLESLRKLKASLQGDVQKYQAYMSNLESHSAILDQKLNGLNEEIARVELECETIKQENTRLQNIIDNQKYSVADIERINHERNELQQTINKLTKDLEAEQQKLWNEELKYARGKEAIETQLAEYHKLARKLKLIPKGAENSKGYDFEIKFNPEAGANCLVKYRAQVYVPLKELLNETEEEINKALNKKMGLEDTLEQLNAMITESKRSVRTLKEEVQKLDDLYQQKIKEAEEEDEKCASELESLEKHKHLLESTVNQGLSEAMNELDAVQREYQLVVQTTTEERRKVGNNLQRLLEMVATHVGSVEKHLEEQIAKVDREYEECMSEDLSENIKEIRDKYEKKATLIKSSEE
# Nuf2-Ndc80 complex = Nuf2-Ndc80 complex (UniProt Q9BZD4;O14777); test: SEC
# Chain of Nuf2-Ndc80 complex (Q9BZD4 whole entry, chain 1 of 2): as the sequence (Q9BZD4 whole entry, chain 1 of 2) above
# Chain of Nuf2-Ndc80 complex (O14777 whole entry, chain 2 of 2): as the sequence (O14777 whole entry, chain 2 of 2) above
Binder,binding result (GST-Nuf2-Ndc80 complex),binding result (Nuf2-Ndc80 complex)
B1,binds,–
B2,binds,binds
B3,binds,–

# — article doi:10.1101/680314 (bioRxiv, 2019)
